Test results published in US11890352B2, “Plectin-targeted liposomes/PARP inhibitor in the treatment of cancer” (University of Virginia Patent Foundation, priority 2018, dated 2024).
Blank lines part the entries; values can stand above or below the molecule they belong to. Where no end group is shown, it is not given here. Side-chain parts run from the residue outwards. The star is where a group is joined. DSPE = CCCCCCCCCCCCCCCCCC(=O)OC[C@H](COP(=O)(O)OCCN*)OC(=O)CCCCCCCCCCCCCCCCC; FAM = 5(6)-carboxyfluorescein

How the values were obtained:
[1] = cited from earlier work
[2] = unlabeled liposomes; cited from earlier work
pancreatic cancer = details: clinical study; cited from earlier work
[3] = molecular target: T1, cell surface plectin on ovarian cancer cells (SKOV3, OVCAR8) (human, UniProt Q15149 1-4684); experiment: cell binding assay on SKOV3 cells; DiR fluorescence; NCP and no-peptide liposome binding subtracted; SKOV3 cells
T1 construct: whole, on cells; Endogenous plectin mislocalized to the cell surface; also called Plectin-1
Description: (§1) FT 132, SKOV3 and OVCAR8 cells were plated in triplicate in a 96 well black plate at a concentration of 5000 cells per well. After 48 h, liposomes at concentrations ranging from […] were incubated with the three cell lines after washing the wells with PBS buffer for 1 h at 37° C. The cells were later washed with PBS and liposomal DiR intensity was measured using a fluorescent plate reader (FLUOstar omega, BMG Labtech Inc. Cary, NC). PTP liposomal binding to the three cell lines was compared with liposomes containing no peptide (background binding) and with NCP (non-specific binding). Background binding by the no peptide liposomes was subtracted from both the non-specific (NCP) and PTP liposomes. To obtain specific binding of PTP liposomes, we subtracted non-specific (NCP) binding from the total binding by the PTP liposomes.
(§2) Figure 2B: Figure 3A: FIGS. 3A-C. PTP liposomes bind to SKOV3 and OVCAR8 cells. Cell binding assay (ELISA) was carried out to assess PTP liposome association to cell surface plectin on SKOV3 and OVCAR8 cells. Liposomes (No Pep, NCP and PTP) at varying concentrations were incubated with FT132, SKOV3 and OVCAR8 cells for 1 h at 37° C. […] NCP binding was subtracted from PTP liposomes to determine specific binding of PTP liposomes to A) FT132, B) SKOV3 and C) OVCAR8 cells for 1 h at 37° C. followed by quantification of DiR using fluorescent plate reader.

[4] = molecular target: T1, cell surface plectin on ovarian cancer …; experiment: cell binding assay on OVCAR8 cells; DiR fluorescence; NCP and no-peptide liposome binding subtracted; OVCAR8 cells
Description: as §1, §2

[5] = molecular target: T1, cell surface plectin on ovarian cancer …; experiment: cell binding assay on FT132 cells (healthy fallopian tube cells), DiR fluorescence at 780 nm, 1 h at 37 C; fit of the SPECIFIC curve; no unit beside the number, concentration axis in nM
Description: as §1, §2

[6] = molecular target: T1, cell surface plectin on ovarian cancer …; experiment: cell binding assay on FT132 cells (healthy fallopian tube cells), DiR fluorescence at 780 nm, 1 h at 37 C
Description: as §1, §2

[7] = molecular target: T2, recombinant his-tagged C-terminus fragment of plectin (4379-4684 aa) (human, UniProt Q15149 4379-4684); experiment: BLI (ForteBio Octet), his-tagged plectin C-terminus fragment loaded on anti-His sensors, liposomes in solution
T2 construct: range 4379-4684; also called his-tagged plectin fragment; c-terminus fragment of plectin (4379-4384 aa); not shown: his tag
T2 sequence (looked up): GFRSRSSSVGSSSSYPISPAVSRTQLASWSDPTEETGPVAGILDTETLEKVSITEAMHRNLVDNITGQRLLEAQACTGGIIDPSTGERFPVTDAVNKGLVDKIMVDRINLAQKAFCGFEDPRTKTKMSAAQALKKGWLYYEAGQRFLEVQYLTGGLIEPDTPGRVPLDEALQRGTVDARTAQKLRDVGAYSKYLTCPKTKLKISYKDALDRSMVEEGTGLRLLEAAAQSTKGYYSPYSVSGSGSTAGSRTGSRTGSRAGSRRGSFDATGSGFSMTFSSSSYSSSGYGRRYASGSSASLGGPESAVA
Description: Biolayer Interferometry (BLI) to Study PTP-Liposomes Binding to C-Terminus Fragment of Plectin Biolayer interferometry (BLI) was performed using ForteBio octect Red 96 system (ForteBio, Menlo Park, CA), we used recombinant C-terminus fragment of plectin (4379-4684 aa). All BLI assays were performed in black 96 well plates (Nunc F96 Micro Well plates, Thermo Fisher, Waltham, MA). The total working volume for samples or buffer was 0.2 mL per well and the rpm setting for each equilibration and loading steps was set at 1000 rpm. The association and dissociation step with C-terminus fragment of plectin and peptide-liposomes was carried out at 600 rpm. Prior to each assay, anti-his biosensor tips were pre-wetted in 0.2 mL PBS for at least 10 min followed by equilibrium with PBS for 100 seconds. Anti-his biosensors were then non-covalently loaded with his-tagged C-terminus fragment ([…]) (100 sec). Subsequently, association with No peptide, NCP (Negative Control Peptide) and PTP liposomes (40 mM) (300 sec) was be carried out. Finally, the dissociation was monitored in PBS for 600 sec.
Figure 2A: FIGS. 2A-B described plectin-targeted peptide (PTP) liposomes binding to Plectin. A) PTP peptide was conjugated to DSPE-PEG-MALEIMIDE via the thiol present on the C-terminus of the peptide. […]

T1 sequence (Q15149 whole entry): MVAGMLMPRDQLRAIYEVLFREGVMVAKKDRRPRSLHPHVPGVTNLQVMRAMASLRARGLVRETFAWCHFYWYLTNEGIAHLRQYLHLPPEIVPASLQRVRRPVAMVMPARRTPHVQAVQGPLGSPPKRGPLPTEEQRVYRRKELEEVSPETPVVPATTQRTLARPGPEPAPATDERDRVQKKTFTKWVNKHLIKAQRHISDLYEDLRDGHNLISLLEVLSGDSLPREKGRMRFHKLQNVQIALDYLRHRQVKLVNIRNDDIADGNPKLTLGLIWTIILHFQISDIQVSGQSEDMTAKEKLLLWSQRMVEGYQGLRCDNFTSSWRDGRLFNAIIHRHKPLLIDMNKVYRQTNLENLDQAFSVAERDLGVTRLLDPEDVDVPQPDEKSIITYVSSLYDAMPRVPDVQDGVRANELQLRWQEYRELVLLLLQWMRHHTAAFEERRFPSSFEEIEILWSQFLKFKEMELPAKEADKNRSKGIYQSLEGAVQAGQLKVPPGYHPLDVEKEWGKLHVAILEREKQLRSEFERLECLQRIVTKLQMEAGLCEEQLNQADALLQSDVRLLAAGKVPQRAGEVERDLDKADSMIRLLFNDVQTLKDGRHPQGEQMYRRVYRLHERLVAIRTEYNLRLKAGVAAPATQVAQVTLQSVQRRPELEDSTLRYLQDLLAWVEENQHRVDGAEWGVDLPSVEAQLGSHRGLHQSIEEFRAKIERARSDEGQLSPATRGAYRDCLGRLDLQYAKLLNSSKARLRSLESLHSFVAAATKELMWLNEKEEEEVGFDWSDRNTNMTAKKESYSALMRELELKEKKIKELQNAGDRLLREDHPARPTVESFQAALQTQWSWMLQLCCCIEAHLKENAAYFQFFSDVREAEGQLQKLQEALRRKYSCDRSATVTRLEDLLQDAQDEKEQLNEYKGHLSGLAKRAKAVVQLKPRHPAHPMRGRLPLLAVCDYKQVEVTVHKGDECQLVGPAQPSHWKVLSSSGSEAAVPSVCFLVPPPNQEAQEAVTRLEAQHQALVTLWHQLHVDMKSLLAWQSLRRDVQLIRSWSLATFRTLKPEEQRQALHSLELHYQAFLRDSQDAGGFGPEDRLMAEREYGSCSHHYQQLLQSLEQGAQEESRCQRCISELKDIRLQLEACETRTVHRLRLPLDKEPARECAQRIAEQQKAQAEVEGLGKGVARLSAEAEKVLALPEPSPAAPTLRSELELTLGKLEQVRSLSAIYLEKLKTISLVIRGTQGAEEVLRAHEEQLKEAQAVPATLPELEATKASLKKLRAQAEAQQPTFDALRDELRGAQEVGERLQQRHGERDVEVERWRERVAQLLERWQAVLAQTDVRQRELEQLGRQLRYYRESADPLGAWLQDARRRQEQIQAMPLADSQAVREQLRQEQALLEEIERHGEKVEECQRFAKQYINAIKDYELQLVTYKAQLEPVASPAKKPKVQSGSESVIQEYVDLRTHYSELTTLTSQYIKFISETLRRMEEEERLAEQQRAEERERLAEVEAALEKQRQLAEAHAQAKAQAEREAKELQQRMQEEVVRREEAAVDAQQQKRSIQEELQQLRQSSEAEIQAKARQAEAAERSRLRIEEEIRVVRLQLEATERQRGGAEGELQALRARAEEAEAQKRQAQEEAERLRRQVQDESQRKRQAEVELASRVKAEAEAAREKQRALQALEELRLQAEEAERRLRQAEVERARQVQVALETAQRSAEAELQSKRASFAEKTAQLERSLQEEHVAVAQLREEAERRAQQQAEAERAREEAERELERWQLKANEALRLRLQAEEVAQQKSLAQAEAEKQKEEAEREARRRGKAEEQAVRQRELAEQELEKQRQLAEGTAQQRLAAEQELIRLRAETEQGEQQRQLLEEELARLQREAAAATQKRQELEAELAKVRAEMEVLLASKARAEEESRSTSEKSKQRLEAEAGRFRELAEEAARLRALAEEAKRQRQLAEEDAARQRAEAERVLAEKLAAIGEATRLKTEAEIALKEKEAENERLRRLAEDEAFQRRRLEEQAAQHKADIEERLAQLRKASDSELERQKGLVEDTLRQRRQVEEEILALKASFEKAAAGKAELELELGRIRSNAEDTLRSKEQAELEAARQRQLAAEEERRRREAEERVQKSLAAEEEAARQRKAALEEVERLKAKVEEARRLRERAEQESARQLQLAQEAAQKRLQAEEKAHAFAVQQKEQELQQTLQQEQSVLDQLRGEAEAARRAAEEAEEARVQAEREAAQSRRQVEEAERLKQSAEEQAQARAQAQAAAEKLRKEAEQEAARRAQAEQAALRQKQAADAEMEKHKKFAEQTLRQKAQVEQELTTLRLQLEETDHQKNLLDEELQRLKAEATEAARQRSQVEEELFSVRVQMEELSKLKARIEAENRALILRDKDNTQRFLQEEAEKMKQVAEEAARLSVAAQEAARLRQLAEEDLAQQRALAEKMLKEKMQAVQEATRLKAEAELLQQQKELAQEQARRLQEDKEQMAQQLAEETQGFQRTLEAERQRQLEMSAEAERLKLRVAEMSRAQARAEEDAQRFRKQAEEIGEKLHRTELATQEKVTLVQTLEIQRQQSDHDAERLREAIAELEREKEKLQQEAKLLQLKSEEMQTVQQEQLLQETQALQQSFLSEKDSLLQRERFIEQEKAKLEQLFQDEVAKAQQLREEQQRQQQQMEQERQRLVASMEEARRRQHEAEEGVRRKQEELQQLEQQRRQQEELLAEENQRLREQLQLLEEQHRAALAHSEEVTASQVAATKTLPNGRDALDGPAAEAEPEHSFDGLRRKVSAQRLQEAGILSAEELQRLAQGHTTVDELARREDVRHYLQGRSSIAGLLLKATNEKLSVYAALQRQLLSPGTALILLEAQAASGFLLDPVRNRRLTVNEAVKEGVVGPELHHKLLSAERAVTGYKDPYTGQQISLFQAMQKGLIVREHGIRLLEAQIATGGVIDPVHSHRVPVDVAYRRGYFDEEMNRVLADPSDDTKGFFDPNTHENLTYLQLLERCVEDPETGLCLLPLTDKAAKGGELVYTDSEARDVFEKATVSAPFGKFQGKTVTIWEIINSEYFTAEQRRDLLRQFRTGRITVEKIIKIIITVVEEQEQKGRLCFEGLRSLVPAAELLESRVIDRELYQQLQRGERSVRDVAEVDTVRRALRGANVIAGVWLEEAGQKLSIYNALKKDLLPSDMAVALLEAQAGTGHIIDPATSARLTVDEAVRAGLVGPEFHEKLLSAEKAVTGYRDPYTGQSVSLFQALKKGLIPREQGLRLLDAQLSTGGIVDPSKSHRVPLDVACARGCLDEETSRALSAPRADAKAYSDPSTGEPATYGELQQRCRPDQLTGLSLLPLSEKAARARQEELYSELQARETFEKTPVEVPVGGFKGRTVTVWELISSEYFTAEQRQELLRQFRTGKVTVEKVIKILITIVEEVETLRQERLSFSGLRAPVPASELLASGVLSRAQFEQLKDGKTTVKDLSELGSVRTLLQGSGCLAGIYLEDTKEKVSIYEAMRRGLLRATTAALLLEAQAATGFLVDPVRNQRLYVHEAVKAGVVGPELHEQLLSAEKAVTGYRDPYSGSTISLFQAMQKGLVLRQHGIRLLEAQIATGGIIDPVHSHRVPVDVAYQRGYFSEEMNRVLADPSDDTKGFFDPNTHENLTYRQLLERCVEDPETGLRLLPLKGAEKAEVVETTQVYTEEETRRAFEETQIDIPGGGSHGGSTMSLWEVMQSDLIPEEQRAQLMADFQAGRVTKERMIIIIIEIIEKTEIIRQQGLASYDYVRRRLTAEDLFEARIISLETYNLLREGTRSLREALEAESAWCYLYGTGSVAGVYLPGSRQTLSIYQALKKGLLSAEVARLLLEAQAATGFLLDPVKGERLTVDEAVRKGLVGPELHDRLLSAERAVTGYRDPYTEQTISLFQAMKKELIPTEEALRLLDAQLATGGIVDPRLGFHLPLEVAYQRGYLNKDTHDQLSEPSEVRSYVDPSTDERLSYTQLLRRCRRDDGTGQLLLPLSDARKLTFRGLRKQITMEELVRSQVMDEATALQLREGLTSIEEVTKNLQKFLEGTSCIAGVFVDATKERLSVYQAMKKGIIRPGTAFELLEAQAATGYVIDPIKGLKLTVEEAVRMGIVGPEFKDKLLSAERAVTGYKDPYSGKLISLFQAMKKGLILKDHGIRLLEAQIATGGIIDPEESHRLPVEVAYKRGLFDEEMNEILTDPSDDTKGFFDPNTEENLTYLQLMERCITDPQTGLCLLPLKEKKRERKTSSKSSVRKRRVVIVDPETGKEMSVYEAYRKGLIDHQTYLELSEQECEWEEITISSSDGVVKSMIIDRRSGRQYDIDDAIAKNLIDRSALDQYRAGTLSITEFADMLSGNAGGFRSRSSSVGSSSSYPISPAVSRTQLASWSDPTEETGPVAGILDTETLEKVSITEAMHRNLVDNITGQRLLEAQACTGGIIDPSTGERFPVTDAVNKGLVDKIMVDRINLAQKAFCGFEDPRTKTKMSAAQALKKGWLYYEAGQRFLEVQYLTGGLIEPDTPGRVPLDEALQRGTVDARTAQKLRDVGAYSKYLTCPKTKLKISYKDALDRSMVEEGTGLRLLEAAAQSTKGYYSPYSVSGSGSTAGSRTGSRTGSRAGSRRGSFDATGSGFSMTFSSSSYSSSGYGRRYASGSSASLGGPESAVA

Molecule: O=C(c1cc(Cc2n[nH]c(=O)c3ccccc23)ccc1F)N1CCN(C(=O)C2CC2)CC1 [Olaparib]
patients who developed myelodysplastic syndrome and acute myeloid leukemia [1]: About 2%
patients with adverse side effects (neutropenia, thrombocytopenia) ([1]; doses necessary to achieve PARP inhibition): About 10%

Molecule: COc1cccc2c1C(=O)c1c(O)c3c(c(O)c1C2=O)C[C@@](O)(C(=O)CO)C[C@@H]3O[C@H]1C[C@H](N)[C@H](O)[C@H](C)O1 [doxorubicin]
drug loading previously reported [2]: 200 μg drug per mg of lipid

Molecule: CNCc1ccc(-c2[nH]c3cc(F)cc4c3c2CCNC4=O)cc1 [Rucaparib]
patients showing benefit (pancreatic cancer): 36%

Kd [3]: 0.12 nM
Kd [4]: 0.11 nM
Kd [5]: 0.06 nM
B1: PTP liposomes (Plectin Targeting Peptide KTLLPTPGGSK(FAM)C conjugated to DSPE-PEG3400-Maleimide and displayed on DOPC/cholesterol/DSPE-PEG2000/DiR liposomes) (peptide)
peptide: KTLLPTPGGSK(FAM)C([maleimide-PEG3400-DSPE])-NH2
modifications: also: displayed on liposomes
notes: Tested only as a multivalent display on liposomes (about 110-120 nm), not as free peptide; also called Plectin Targeted Peptide; PTP-PEG3400-DSPE

binding result [6]: no binding (tested: 0.3 nM)
binding result [7]: no binding
B2: NCP liposomes (Negative Control Peptide TALPRLNGGSK(FAM)C conjugated to DSPE-PEG3400-Maleimide and displayed on liposomes) (peptide)
peptide: TALPRLNGGSK(FAM)C([maleimide-PEG3400-DSPE])-NH2
modifications: also: displayed on liposomes
notes: Control peptide, tested only as a display on liposomes
